Consider ten molecules from patent publication US9937235B2, “Lipidated peptides as anti-obesity agents” (USTAV ORGANICKE CHEMIE A BIOCHEMIE AKADEMIE VED CR, V.V.I, priority 2012, dated 2018).

The subject of one assay is fasted C57BL/6 mice. Description: Food intake in fasted mice after SC administration. In kind it is in vivo, mouse. The following applies: fasted C57BL/6 mice, 5 mg/kg SC, 45 min. How it is done: Male C57BL/6 mice (An Lab, Prague 4) were bred in the accredited animal facility in the Institute of Organic Chemistry and Biochemistry, Czech Academy of Sciences, Prague, at the Institute of Molecular Genetics, Prague 4, at the temperature of 22±2° C. with access to food and water ad libitum. The day/night cycle was 12/12 hours (light turned on at 6:00 am). Animals were treated according to the Animal Protection Act (Act No. 246/1992). The males were fed standard chow diet St-1 (Mlýn Kocanda, Praha, Czech Republic) which contained 66% saccharides, 25% proteins and 9% lipids with a caloric value of 3.4 kcal/g.
The food was withdrawn 17 hours prior to injection of lipidated peptide and free access to water was maintained. The administration of saline, PrRP or lipidated analogs was performed either by SC injection at doses of 1-10 mg/kg (volume 0.2 ml/mouse), or by ICV using infusion pump (cannulae were inserted into the third brain ventricle 4 days before the experiment following the procedure of Maixnerová et al. (Maixnerová et al., 2011)). The single dose of peptide was 4 nmol/mouse (5 μl/mouse).
Fifteen minutes after the lipidated peptide administration, the mice were given pre-weighed food. The food was then weighed every 30 minutes for 5-10 hours. The administration of every dose was performed at least twice and one group of mice consisted of at least 6 mice. The results were presented as % of food intake as compared with the control group injected with saline.
Statistical evaluation was performed using program Graph-Pad Prism Software (San Diego, Calif., USA), and the one-way ANOVA with a subsequent Dunnettovým post-hoc test. The difference in food intake between mice injected with saline and mice injected with the examined peptide were considered statistically significant at P<0.05.

The target of assay [1] is T1, rat PrRP receptor in RC-4B/C cells (rat, UniProt Q64121 1-370).
T1 construct: whole, on cells; also called the rat receptor; GPR10
T1 sequence (looked up): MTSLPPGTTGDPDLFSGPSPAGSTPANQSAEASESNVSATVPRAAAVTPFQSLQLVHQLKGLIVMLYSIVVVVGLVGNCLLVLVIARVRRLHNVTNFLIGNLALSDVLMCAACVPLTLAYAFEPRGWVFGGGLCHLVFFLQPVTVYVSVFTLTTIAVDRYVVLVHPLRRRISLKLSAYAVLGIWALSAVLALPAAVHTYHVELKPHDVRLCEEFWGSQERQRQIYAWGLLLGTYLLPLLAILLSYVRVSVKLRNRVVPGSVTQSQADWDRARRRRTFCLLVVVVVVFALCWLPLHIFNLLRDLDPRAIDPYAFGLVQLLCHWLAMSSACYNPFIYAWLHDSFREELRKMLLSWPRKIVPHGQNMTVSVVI
Description: competition with 125I-rat PrRP31 on RC-4B/C cells. Here is the method: The rat pituitary cell line RC-4B/C (ATCC, Manassas, USA) was grown on 24-well plates which had their bottom coated with polyethyleneimine. The cells were grown to the optimal density of 300-450 thousand per well.
(§1) Plates were incubated for 60 minutes at room temperature. After incubation, the cells were solubilized in 0.1 mol/l solution of NaOH and the radioactivity bound to the cells was counted using a γ-counter. The experiments were performed in duplicate and repeated at least three times.
For evaluation of competitive binding experiments, the program Graph Pad Prism Software (San Diego, Calif., USA) was used. A method of nonlinear regression assuming one-site binding was used.

For assay [2], the target named is T2, human PrRP receptor, GPR10, transfected in CHO cells (human, UniProt P49683 1-370).
T2 construct: whole, on cells; also called human GPR10 receptor; the human receptor GPR10 in CHO cells
T2 sequence (looked up): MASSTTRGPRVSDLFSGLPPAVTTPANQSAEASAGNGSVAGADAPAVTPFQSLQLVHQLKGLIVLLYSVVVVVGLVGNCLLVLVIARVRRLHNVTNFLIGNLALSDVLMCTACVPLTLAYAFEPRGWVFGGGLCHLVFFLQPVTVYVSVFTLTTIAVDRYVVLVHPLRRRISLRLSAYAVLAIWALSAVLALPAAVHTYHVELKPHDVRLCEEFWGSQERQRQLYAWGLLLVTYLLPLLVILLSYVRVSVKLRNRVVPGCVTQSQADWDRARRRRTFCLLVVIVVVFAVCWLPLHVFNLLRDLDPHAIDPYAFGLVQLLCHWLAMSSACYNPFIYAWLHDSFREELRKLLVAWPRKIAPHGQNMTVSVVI
Nature of the assay: competition with 125I-human PrRP31 on CHO cells with transfected human GPR10. Here is the method:
CHO cells with transfected human PrRP receptor, GPR10 (Perkin Elmer, USA) were grown on 24-well plates coated with polyethyleneimine. The cells were grown to the optimal density of 40-80 thousand cells per well.
as §1

Where a SMILES comes first, the peptide text is derived from it. Where no end group is shown, it is not given here. [ ]: non-standard residue; d: D form. The star is where a group is joined. Palmitoyl = CCCCCCCCCCCCCCCC(=O)*; Myristoyl = CCCCCCCCCCCCCC(=O)*; Decanoyl = CCCCCCCCCC(=O)*; Nle = CCCC[C@H](N)C(=O)O; Octanoyl = CCCCCCCC(=O)*

`CCCCCCCCCCCCCC(=O)N[C@@H](CO)C(=O)N[C@@H](CCCNC(=N)N)C(=O)N[C@@H](C)C(=O)N[C@@H](Cc1c[nH]cn1)C(=O)N[C@@H](CCC(N)=O)C(=O)N[C@@H](Cc1c[nH]cn1)C(=O)N[C@@H](CO)C(=O)N[C@@H](CCSC)C(=O)N[C@@H](CCC(=O)O)C(=O)N[C@H](C(=O)N[C@@H](CCCNC(=N)N)C(=O)N[C@H](C(=O)N1CCC[C@H]1C(=O)N[C@@H](CC(=O)O)C(=O)N[C@H](C(=O)N[C@@H](CC(N)=O)C(=O)N1CCC[C@H]1C(=O)N[C@@H](C)C(=O)N[C@@H](Cc1c[nH]c2ccccc12)C(=O)N[C@@H](Cc1ccc(O)cc1)C(=O)N[C@H](C(=O)NCC(=O)N[C@@H](CCCNC(=N)N)C(=O)NCC(=O)N[C@H](C(=O)N[C@@H](CCCNC(=N)N)C(=O)N1CCC[C@H]1C(=O)N[C@H](C(=O)NCC(=O)N[C@@H](CCCNC(=N)N)C(=O)N[C@@H](Cc1ccccc1)C(N)=O)C(C)C)[C@@H](C)CC)[C@@H](C)O)[C@@H](C)CC)[C@@H](C)O)[C@@H](C)O` [Analog 60] (Myristoyl-SRAHQHSMETRTPDINPAWYTGRGIRPVGRF-NH2): the “Food intake in mice (5 mg/kg SC) % saline-treated group (45 min)” value in the assay on fasted C57BL/6 mice came to 20%.

A word on the Ki: it is a measure of affinity in units of concentration, obtained from inhibition or displacement. Molecule TPDINPAWYASRGIRPVGRF-NH2 [analog no. 51] displayed a Ki in assay [1] of 0.00238 µM.

B1: analog no. 60 (peptide)
peptide: Myristoyl-SRAHQHSMETRTPDINPAWYTGRGIRPVGRF-NH2
SMILES: CCCCCCCCCCCCCC(=O)N[C@@H](CO)C(=O)N[C@@H](CCCNC(=N)N)C(=O)N[C@@H](C)C(=O)N[C@@H](Cc1c[nH]cn1)C(=O)N[C@@H](CCC(N)=O)C(=O)N[C@@H](Cc1c[nH]cn1)C(=O)N[C@@H](CO)C(=O)N[C@@H](CCSC)C(=O)N[C@@H](CCC(=O)O)C(=O)N[C@H](C(=O)N[C@@H](CCCNC(=N)N)C(=O)N[C@H](C(=O)N1CCC[C@H]1C(=O)N[C@@H](CC(=O)O)C(=O)N[C@H](C(=O)N[C@@H](CC(N)=O)C(=O)N1CCC[C@H]1C(=O)N[C@@H](C)C(=O)N[C@@H](Cc1c[nH]c2ccccc12)C(=O)N[C@@H](Cc1ccc(O)cc1)C(=O)N[C@H](C(=O)NCC(=O)N[C@@H](CCCNC(=N)N)C(=O)NCC(=O)N[C@H](C(=O)N[C@@H](CCCNC(=N)N)C(=O)N1CCC[C@H]1C(=O)N[C@H](C(=O)NCC(=O)N[C@@H](CCCNC(=N)N)C(=O)N[C@@H](Cc1ccccc1)C(N)=O)C(C)C)[C@@H](C)CC)[C@@H](C)O)[C@@H](C)CC)[C@@H](C)O)[C@@H](C)O
With B1, the inhibition constant (Ki) in assay [1] is 0.00075 µM.

B2: analog no. 61 (peptide)
peptide: Palmitoyl-SRAHQHSMETRTPDINPAWYTGRGIRPVGRF-NH2
SMILES: CCCCCCCCCCCCCCCC(=O)N[C@@H](CO)C(=O)N[C@@H](CCCNC(=N)N)C(=O)N[C@@H](C)C(=O)N[C@@H](Cc1c[nH]cn1)C(=O)N[C@@H](CCC(N)=O)C(=O)N[C@@H](Cc1c[nH]cn1)C(=O)N[C@@H](CO)C(=O)N[C@@H](CCSC)C(=O)N[C@@H](CCC(=O)O)C(=O)N[C@H](C(=O)N[C@@H](CCCNC(=N)N)C(=O)N[C@H](C(=O)N1CCC[C@H]1C(=O)N[C@@H](CC(=O)O)C(=O)N[C@H](C(=O)N[C@@H](CC(N)=O)C(=O)N1CCC[C@H]1C(=O)N[C@@H](C)C(=O)N[C@@H](Cc1c[nH]c2ccccc12)C(=O)N[C@@H](Cc1ccc(O)cc1)C(=O)N[C@H](C(=O)NCC(=O)N[C@@H](CCCNC(=N)N)C(=O)NCC(=O)N[C@H](C(=O)N[C@@H](CCCNC(=N)N)C(=O)N1CCC[C@H]1C(=O)N[C@H](C(=O)NCC(=O)N[C@@H](CCCNC(=N)N)C(=O)N[C@@H](Cc1ccccc1)C(N)=O)C(C)C)[C@@H](C)CC)[C@@H](C)O)[C@@H](C)CC)[C@@H](C)O)[C@@H](C)O
Regarding B2, the inhibition constant (Ki) in assay [1] is 0.00041 µM.

B3: analog no. 56 (peptide)
peptide: Myristoyl-SRTHRHSMEIRTPDINPAWYASRGIRPVGRF-NH2
SMILES: CCCCCCCCCCCCCC(=O)N[C@@H](CO)C(=O)N[C@@H](CCCNC(=N)N)C(=O)N[C@H](C(=O)N[C@@H](Cc1c[nH]cn1)C(=O)N[C@@H](CCCNC(=N)N)C(=O)N[C@@H](Cc1c[nH]cn1)C(=O)N[C@@H](CO)C(=O)N[C@@H](CCSC)C(=O)N[C@@H](CCC(=O)O)C(=O)N[C@H](C(=O)N[C@@H](CCCNC(=N)N)C(=O)N[C@H](C(=O)N1CCC[C@H]1C(=O)N[C@@H](CC(=O)O)C(=O)N[C@H](C(=O)N[C@@H](CC(N)=O)C(=O)N1CCC[C@H]1C(=O)N[C@@H](C)C(=O)N[C@@H](Cc1c[nH]c2ccccc12)C(=O)N[C@@H](Cc1ccc(O)cc1)C(=O)N[C@@H](C)C(=O)N[C@@H](CO)C(=O)N[C@@H](CCCNC(=N)N)C(=O)NCC(=O)N[C@H](C(=O)N[C@@H](CCCNC(=N)N)C(=O)N1CCC[C@H]1C(=O)N[C@H](C(=O)NCC(=O)N[C@@H](CCCNC(=N)N)C(=O)N[C@@H](Cc1ccccc1)C(N)=O)C(C)C)[C@@H](C)CC)[C@@H](C)CC)[C@@H](C)O)[C@@H](C)CC)[C@@H](C)O
Molecule B3 came in with a Ki in assay [1] of 0.00095 µM.

B4: analog no. 52 (peptide)
peptide: Octanoyl-TPDINPAWYASRGIRPVGRF-NH2
SMILES: CCCCCCCC(=O)N[C@H](C(=O)N1CCC[C@H]1C(=O)N[C@@H](CC(=O)O)C(=O)N[C@H](C(=O)N[C@@H](CC(N)=O)C(=O)N1CCC[C@H]1C(=O)N[C@@H](C)C(=O)N[C@@H](Cc1c[nH]c2ccccc12)C(=O)N[C@@H](Cc1ccc(O)cc1)C(=O)N[C@@H](C)C(=O)N[C@@H](CO)C(=O)N[C@@H](CCCNC(=N)N)C(=O)NCC(=O)N[C@H](C(=O)N[C@@H](CCCNC(=N)N)C(=O)N1CCC[C@H]1C(=O)N[C@H](C(=O)NCC(=O)N[C@@H](CCCNC(=N)N)C(=O)N[C@@H](Cc1ccccc1)C(N)=O)C(C)C)[C@@H](C)CC)[C@@H](C)CC)[C@@H](C)O
With B4, the inhibition constant (Ki) in assay [2] was determined as 0.00302 µM.

As for SHQRPADTHWYPRG[Nle]FPTIGRITARNGEVSR (printed without a C-terminal amide) [analog no. 30], the Ki in assay [1] stood at 1320 µM.

Regarding Myristoyl-[code f][code r]GVPRIGRGTYWAPNIDPT-NH2 [analog no. 37], the Ki in assay [1] is 0.364 µM.

B5: analog no. 53 (peptide)
peptide: Decanoyl-TPDINPAWYASRGIRPVGRF-NH2
SMILES: CCCCCCCCCC(=O)N[C@H](C(=O)N1CCC[C@H]1C(=O)N[C@@H](CC(=O)O)C(=O)N[C@H](C(=O)N[C@@H](CC(N)=O)C(=O)N1CCC[C@H]1C(=O)N[C@@H](C)C(=O)N[C@@H](Cc1c[nH]c2ccccc12)C(=O)N[C@@H](Cc1ccc(O)cc1)C(=O)N[C@@H](C)C(=O)N[C@@H](CO)C(=O)N[C@@H](CCCNC(=N)N)C(=O)NCC(=O)N[C@H](C(=O)N[C@@H](CCCNC(=N)N)C(=O)N1CCC[C@H]1C(=O)N[C@H](C(=O)NCC(=O)N[C@@H](CCCNC(=N)N)C(=O)N[C@@H](Cc1ccccc1)C(N)=O)C(C)C)[C@@H](C)CC)[C@@H](C)CC)[C@@H](C)O
In turn, B5 registered a Ki in assay [2] of 0.00241 µM.

With Palmitoyl-SRTHRHSMEIRTPDINPAWYASRGIRPVGRF-NH2 [analog no. 57], in assay [1], the inhibitory constant (Ki) is 0.00028 µM.
